Data: the supplement of paper PMC10065799, “High-throughput profiling of sequence recognition by tyrosine kinases and SH2 domains using bacterial peptide display” (eLife, 2023)
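Also: 11-residue human phosphosite peptides and single-mutation variants displayed on the E. coli surface, counted by deep sequencing, each peptide's frequency after selection divided by its frequency in the unselected input library; frequency after pTyr selection over input frequency; kinase dosed for 20-30% of maximal phosphorylation in three min.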

The sequences below were run against Jak2 (UniProt O60674) (assay: phosphorylation enrichment, bacterial display (enrichment ratio); higher = better substrate or ligand; peptides without Tyr show the background).
Jak2, sequence (O60674 whole entry, looked up): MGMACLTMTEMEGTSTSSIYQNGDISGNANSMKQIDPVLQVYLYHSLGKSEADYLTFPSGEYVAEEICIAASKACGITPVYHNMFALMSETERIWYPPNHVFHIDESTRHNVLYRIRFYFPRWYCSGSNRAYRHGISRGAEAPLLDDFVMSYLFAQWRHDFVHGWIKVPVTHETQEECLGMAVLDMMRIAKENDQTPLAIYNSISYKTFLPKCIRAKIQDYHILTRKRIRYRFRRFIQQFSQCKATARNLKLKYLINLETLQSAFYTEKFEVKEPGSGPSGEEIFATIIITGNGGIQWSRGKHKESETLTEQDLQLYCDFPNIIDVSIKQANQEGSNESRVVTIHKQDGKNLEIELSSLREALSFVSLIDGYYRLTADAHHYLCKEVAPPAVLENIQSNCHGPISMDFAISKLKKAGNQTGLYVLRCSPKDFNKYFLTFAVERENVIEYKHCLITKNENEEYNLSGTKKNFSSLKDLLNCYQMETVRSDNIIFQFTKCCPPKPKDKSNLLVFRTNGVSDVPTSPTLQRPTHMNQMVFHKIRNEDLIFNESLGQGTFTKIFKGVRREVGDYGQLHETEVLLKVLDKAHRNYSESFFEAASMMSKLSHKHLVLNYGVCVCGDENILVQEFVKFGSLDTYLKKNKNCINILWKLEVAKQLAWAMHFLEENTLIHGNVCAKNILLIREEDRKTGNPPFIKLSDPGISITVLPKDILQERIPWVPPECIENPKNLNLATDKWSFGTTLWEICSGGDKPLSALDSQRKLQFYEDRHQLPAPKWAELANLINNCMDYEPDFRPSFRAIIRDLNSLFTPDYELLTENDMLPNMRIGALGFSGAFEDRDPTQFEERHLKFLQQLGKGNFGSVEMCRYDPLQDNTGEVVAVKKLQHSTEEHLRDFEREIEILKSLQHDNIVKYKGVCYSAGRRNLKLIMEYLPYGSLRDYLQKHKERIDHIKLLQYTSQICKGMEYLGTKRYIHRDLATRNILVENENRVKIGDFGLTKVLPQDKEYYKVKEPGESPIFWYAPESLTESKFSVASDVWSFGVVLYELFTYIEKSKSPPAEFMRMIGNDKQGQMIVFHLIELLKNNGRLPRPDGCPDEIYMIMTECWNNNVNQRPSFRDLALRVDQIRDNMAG
LLNPRYNLPLD [TOM1L1_Y109] was tested, and the phosphorylation enrichment was 0.83.
Sequence SDGHEYIFVDR [PDGFRB_Y579_P584R_YF] has a phosphorylation enrichment of 0.71.
ECKHLYSRKEG [PTPN11_Y263_L261H] gave a phosphorylation enrichment of 0.419.
WDLPEYSYKDP [ITGA3_Y237_S235P] showed a phosphorylation enrichment of 1.18.
Sequence AHPIIYTIIEA [PYKtide_no-pT_2014] has a phosphorylation enrichment of 0.838.
With GKMPQYLESMQ [CYB5R3_Y130_S128P] the phosphorylation enrichment was 0.73.
In the case of DFEGLYQEGGG [TMEM159_Y159_E154D], the phosphorylation enrichment is reported as 0.88.
For FKDYFYCWNTS [AICDA_Y146_F151S], the phosphorylation enrichment was 3.67.
In the case of WNDLDYVDSRR [GAA_Y407_M408V], the phosphorylation enrichment is reported as 0.89.
REQREYLEQLN [CCDC88B_Y1277_D1279E] gave a phosphorylation enrichment of 1.15.
For MKKMHYVDPDR [ST3GAL5_Y99_H104R], the phosphorylation enrichment was 0.534.
Work on TESALYGCTVL [KIAA1804_Y724] yielded a phosphorylation enrichment of 1.12.
FTTIHYNFMCN [TP53_Y234_C229Y_YF] showed a phosphorylation enrichment of 1.24.
With PRSRSYFSTSI [REPS2_Y462_S463F] the phosphorylation enrichment was 0.635.
With HLELNYKEDEY [MME_Y502_Y497H] the phosphorylation enrichment was 1.06.
In the case of FQNGMYGLHQD [SGSH_Y89_H84Y_YF], the phosphorylation enrichment is reported as 0.733.
With HVSISYDIPPT [GAB1_Y307] the phosphorylation enrichment was 0.826.
IQRSLYDCPAS [PDGFRA_Y762_R764C] gave a phosphorylation enrichment of 0.825.
Work on IPPRRYFCSGV [STAMBP_Y36_R38C] yielded a phosphorylation enrichment of 0.667.
For FEPDAYDDLDQ [ELP5_Y302_YF], the phosphorylation enrichment was 1.27.
Work on RQNQEYEILLD [KRT39_Y379] yielded a phosphorylation enrichment of 1.67.
In the case of AKYLGYPPPEI [KDR_Y357], the phosphorylation enrichment is reported as 0.594.
RLLVVYPWTQG [HBG2_Y36_R41G] was tested, and the phosphorylation enrichment was 0.987.
EEGRVYVFHLS [ITGAE_Y549_R552H_YF] gave a phosphorylation enrichment of 0.958.
In the case of DKATEYIQYMR [MAX_Y70], the phosphorylation enrichment is reported as 0.625.
RSPLRYISILT [OR51B6_Y130_T131I] was tested, and the phosphorylation enrichment was 0.475.
In the case of LQTFRYHGLSM [PDHA1_Y289_H292L_YF], the phosphorylation enrichment is reported as 0.732.
Sequence QYQLKYSETPF [SIX6OS1_Y129] has a phosphorylation enrichment of 0.7.
Work on KNSFKYYMSDD [ATRX_Y203_C200S] yielded a phosphorylation enrichment of 0.947.
Work on TSQSQYFSFRE [CCDC170_Y323] yielded a phosphorylation enrichment of 1.29.
TEAEPYYCSLR [NPHS1_Y1138_R1140C] was tested, and the phosphorylation enrichment was 1.4.
EVKAQNEDIAQ [KRT1_Y358_Y358N] was tested, and the phosphorylation enrichment was 0.767.
With RHPFFFAPELL [ALB_Y174_Y174F_YF] the phosphorylation enrichment was 1.15.

What follows are sequences tested against Fyn (UniProt P06241) in the same assay as above.
Fyn, sequence (P06241 whole entry, looked up): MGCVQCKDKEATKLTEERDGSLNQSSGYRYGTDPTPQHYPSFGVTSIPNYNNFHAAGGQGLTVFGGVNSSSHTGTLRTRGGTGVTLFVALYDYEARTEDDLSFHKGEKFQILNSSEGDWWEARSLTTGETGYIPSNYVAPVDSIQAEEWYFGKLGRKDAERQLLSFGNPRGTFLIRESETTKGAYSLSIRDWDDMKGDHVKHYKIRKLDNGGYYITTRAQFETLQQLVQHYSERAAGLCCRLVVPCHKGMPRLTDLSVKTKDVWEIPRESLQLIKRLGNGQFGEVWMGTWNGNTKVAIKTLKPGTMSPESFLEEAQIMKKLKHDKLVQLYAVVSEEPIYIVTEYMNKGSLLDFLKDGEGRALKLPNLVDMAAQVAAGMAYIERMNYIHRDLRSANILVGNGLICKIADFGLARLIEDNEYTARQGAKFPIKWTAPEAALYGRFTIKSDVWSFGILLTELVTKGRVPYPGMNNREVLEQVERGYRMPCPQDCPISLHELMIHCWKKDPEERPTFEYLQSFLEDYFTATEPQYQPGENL
LLNPRYNLPLD [TOM1L1_Y109] was tested, and the phosphorylation enrichment was 0.63.
In the case of SDGHEYIFVDR [PDGFRB_Y579_P584R_YF], the phosphorylation enrichment is reported as 0.436.
ECKHLYSRKEG [PTPN11_Y263_L261H] gave a phosphorylation enrichment of 0.407.
For WDLPEYSYKDP [ITGA3_Y237_S235P], the phosphorylation enrichment was 1.12.
In the case of AHPIIYTIIEA [PYKtide_no-pT_2014], the phosphorylation enrichment is reported as 3.29.
With GKMPQYLESMQ [CYB5R3_Y130_S128P] the phosphorylation enrichment was 0.537.
DFEGLYQEGGG [TMEM159_Y159_E154D] showed a phosphorylation enrichment of 0.874.
FKDYFYCWNTS [AICDA_Y146_F151S] showed a phosphorylation enrichment of 0.618.
For WNDLDYVDSRR [GAA_Y407_M408V], the phosphorylation enrichment was 0.373.
Work on REQREYLEQLN [CCDC88B_Y1277_D1279E] yielded a phosphorylation enrichment of 0.531.
For MKKMHYVDPDR [ST3GAL5_Y99_H104R], the phosphorylation enrichment was 0.395.
In the case of TESALYGCTVL [KIAA1804_Y724], the phosphorylation enrichment is reported as 5.57.
FTTIHYNFMCN [TP53_Y234_C229Y_YF] was tested, and the phosphorylation enrichment was 0.496.
For PRSRSYFSTSI [REPS2_Y462_S463F], the phosphorylation enrichment was 0.468.
HLELNYKEDEY [MME_Y502_Y497H] showed a phosphorylation enrichment of 0.514.
Work on FQNGMYGLHQD [SGSH_Y89_H84Y_YF] yielded a phosphorylation enrichment of 0.599.
In the case of HVSISYDIPPT [GAB1_Y307], the phosphorylation enrichment is reported as 0.645.
In the case of IQRSLYDCPAS [PDGFRA_Y762_R764C], the phosphorylation enrichment is reported as 0.732.
IPPRRYFCSGV [STAMBP_Y36_R38C] was tested, and the phosphorylation enrichment was 0.478.
FEPDAYDDLDQ [ELP5_Y302_YF] was tested, and the phosphorylation enrichment was 0.574.
For RQNQEYEILLD [KRT39_Y379], the phosphorylation enrichment was 0.634.
AKYLGYPPPEI [KDR_Y357] showed a phosphorylation enrichment of 0.321.
In the case of RLLVVYPWTQG [HBG2_Y36_R41G], the phosphorylation enrichment is reported as 0.499.
Sequence EEGRVYVFHLS [ITGAE_Y549_R552H_YF] has a phosphorylation enrichment of 0.512.
Work on DKATEYIQYMR [MAX_Y70] yielded a phosphorylation enrichment of 0.624.
For RSPLRYISILT [OR51B6_Y130_T131I], the phosphorylation enrichment was 0.409.
Work on LQTFRYHGLSM [PDHA1_Y289_H292L_YF] yielded a phosphorylation enrichment of 1.07.
Sequence QYQLKYSETPF [SIX6OS1_Y129] has a phosphorylation enrichment of 0.591.
For KNSFKYYMSDD [ATRX_Y203_C200S], the phosphorylation enrichment was 0.468.
Sequence TSQSQYFSFRE [CCDC170_Y323] has a phosphorylation enrichment of 3.07.
With TEAEPYYCSLR [NPHS1_Y1138_R1140C] the phosphorylation enrichment was 4.22.
With EVKAQNEDIAQ [KRT1_Y358_Y358N] the phosphorylation enrichment was 0.413.
Work on RHPFFFAPELL [ALB_Y174_Y174F_YF] yielded a phosphorylation enrichment of 0.771.

These sequences were tested on c-Abl (mouse) in the same assay as above.
LLNPRYNLPLD [TOM1L1_Y109] gave a phosphorylation enrichment of 1.32.
Work on SDGHEYIFVDR [PDGFRB_Y579_P584R_YF] yielded a phosphorylation enrichment of 0.489.
In the case of ECKHLYSRKEG [PTPN11_Y263_L261H], the phosphorylation enrichment is reported as 0.458.
WDLPEYSYKDP [ITGA3_Y237_S235P] showed a phosphorylation enrichment of 0.545.
With AHPIIYTIIEA [PYKtide_no-pT_2014] the phosphorylation enrichment was 1.85.
Sequence GKMPQYLESMQ [CYB5R3_Y130_S128P] has a phosphorylation enrichment of 0.614.
With DFEGLYQEGGG [TMEM159_Y159_E154D] the phosphorylation enrichment was 0.569.
With FKDYFYCWNTS [AICDA_Y146_F151S] the phosphorylation enrichment was 0.973.
Sequence WNDLDYVDSRR [GAA_Y407_M408V] has a phosphorylation enrichment of 0.53.
REQREYLEQLN [CCDC88B_Y1277_D1279E] showed a phosphorylation enrichment of 0.786.
MKKMHYVDPDR [ST3GAL5_Y99_H104R] gave a phosphorylation enrichment of 0.436.
TESALYGCTVL [KIAA1804_Y724] gave a phosphorylation enrichment of 1.04.
FTTIHYNFMCN [TP53_Y234_C229Y_YF] showed a phosphorylation enrichment of 0.987.
Sequence PRSRSYFSTSI [REPS2_Y462_S463F] has a phosphorylation enrichment of 0.452.
HLELNYKEDEY [MME_Y502_Y497H] gave a phosphorylation enrichment of 0.62.
FQNGMYGLHQD [SGSH_Y89_H84Y_YF] was tested, and the phosphorylation enrichment was 0.552.
HVSISYDIPPT [GAB1_Y307] showed a phosphorylation enrichment of 0.735.
For IQRSLYDCPAS [PDGFRA_Y762_R764C], the phosphorylation enrichment was 1.47.
Sequence IPPRRYFCSGV [STAMBP_Y36_R38C] has a phosphorylation enrichment of 0.593.
FEPDAYDDLDQ [ELP5_Y302_YF] gave a phosphorylation enrichment of 0.731.
For RQNQEYEILLD [KRT39_Y379], the phosphorylation enrichment was 1.04.
With AKYLGYPPPEI [KDR_Y357] the phosphorylation enrichment was 0.538.
Work on RLLVVYPWTQG [HBG2_Y36_R41G] yielded a phosphorylation enrichment of 0.593.
EEGRVYVFHLS [ITGAE_Y549_R552H_YF] was tested, and the phosphorylation enrichment was 0.825.
DKATEYIQYMR [MAX_Y70] gave a phosphorylation enrichment of 0.499.
With RSPLRYISILT [OR51B6_Y130_T131I] the phosphorylation enrichment was 0.419.
LQTFRYHGLSM [PDHA1_Y289_H292L_YF] was tested, and the phosphorylation enrichment was 0.589.
Work on QYQLKYSETPF [SIX6OS1_Y129] yielded a phosphorylation enrichment of 0.808.
Sequence KNSFKYYMSDD [ATRX_Y203_C200S] has a phosphorylation enrichment of 0.671.
In the case of TSQSQYFSFRE [CCDC170_Y323], the phosphorylation enrichment is reported as 0.604.
With TEAEPYYCSLR [NPHS1_Y1138_R1140C] the phosphorylation enrichment was 1.18.
For EVKAQNEDIAQ [KRT1_Y358_Y358N], the phosphorylation enrichment was 0.51.
Sequence RHPFFFAPELL [ALB_Y174_Y174F_YF] has a phosphorylation enrichment of 1.02.

The sequences below were run against EPHB1 (UniProt P54762) in the same assay as above.
EPHB1, sequence (P54762 whole entry, looked up): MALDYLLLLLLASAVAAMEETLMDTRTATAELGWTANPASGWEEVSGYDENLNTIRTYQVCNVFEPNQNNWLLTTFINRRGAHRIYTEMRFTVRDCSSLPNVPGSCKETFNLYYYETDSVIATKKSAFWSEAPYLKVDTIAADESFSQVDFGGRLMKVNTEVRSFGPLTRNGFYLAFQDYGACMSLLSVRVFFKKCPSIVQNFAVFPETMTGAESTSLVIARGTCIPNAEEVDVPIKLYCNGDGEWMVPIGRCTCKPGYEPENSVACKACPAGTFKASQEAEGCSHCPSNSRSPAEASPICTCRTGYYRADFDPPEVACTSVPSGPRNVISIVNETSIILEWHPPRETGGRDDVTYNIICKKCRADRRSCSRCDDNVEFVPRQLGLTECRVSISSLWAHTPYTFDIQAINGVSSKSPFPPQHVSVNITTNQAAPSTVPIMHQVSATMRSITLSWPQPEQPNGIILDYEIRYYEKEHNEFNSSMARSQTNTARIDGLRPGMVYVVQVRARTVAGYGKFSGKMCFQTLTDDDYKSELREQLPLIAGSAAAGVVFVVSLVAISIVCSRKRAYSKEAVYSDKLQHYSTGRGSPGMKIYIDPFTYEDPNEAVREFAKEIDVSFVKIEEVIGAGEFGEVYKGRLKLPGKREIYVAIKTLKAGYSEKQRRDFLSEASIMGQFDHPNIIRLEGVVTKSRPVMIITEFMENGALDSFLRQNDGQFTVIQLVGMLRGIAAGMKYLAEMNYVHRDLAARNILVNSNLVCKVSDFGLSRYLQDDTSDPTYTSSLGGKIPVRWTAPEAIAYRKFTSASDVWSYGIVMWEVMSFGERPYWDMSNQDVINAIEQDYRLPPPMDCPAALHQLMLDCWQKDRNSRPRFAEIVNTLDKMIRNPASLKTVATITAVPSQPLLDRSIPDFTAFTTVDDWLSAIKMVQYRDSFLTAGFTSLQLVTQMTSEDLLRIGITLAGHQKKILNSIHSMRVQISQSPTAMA
LLNPRYNLPLD [TOM1L1_Y109] gave a phosphorylation enrichment of 0.54.
SDGHEYIFVDR [PDGFRB_Y579_P584R_YF] gave a phosphorylation enrichment of 0.427.
For ECKHLYSRKEG [PTPN11_Y263_L261H], the phosphorylation enrichment was 0.406.
Work on WDLPEYSYKDP [ITGA3_Y237_S235P] yielded a phosphorylation enrichment of 0.631.
Sequence AHPIIYTIIEA [PYKtide_no-pT_2014] has a phosphorylation enrichment of 5.42.
GKMPQYLESMQ [CYB5R3_Y130_S128P] showed a phosphorylation enrichment of 0.492.
For DFEGLYQEGGG [TMEM159_Y159_E154D], the phosphorylation enrichment was 0.746.
In the case of FKDYFYCWNTS [AICDA_Y146_F151S], the phosphorylation enrichment is reported as 5.4.
Work on WNDLDYVDSRR [GAA_Y407_M408V] yielded a phosphorylation enrichment of 0.515.
With REQREYLEQLN [CCDC88B_Y1277_D1279E] the phosphorylation enrichment was 0.54.
MKKMHYVDPDR [ST3GAL5_Y99_H104R] showed a phosphorylation enrichment of 0.321.
TESALYGCTVL [KIAA1804_Y724] showed a phosphorylation enrichment of 0.686.
With FTTIHYNFMCN [TP53_Y234_C229Y_YF] the phosphorylation enrichment was 0.74.
PRSRSYFSTSI [REPS2_Y462_S463F] showed a phosphorylation enrichment of 0.478.
HLELNYKEDEY [MME_Y502_Y497H] was tested, and the phosphorylation enrichment was 0.562.
Work on FQNGMYGLHQD [SGSH_Y89_H84Y_YF] yielded a phosphorylation enrichment of 0.437.
In the case of HVSISYDIPPT [GAB1_Y307], the phosphorylation enrichment is reported as 0.522.
In the case of IQRSLYDCPAS [PDGFRA_Y762_R764C], the phosphorylation enrichment is reported as 2.37.
Work on IPPRRYFCSGV [STAMBP_Y36_R38C] yielded a phosphorylation enrichment of 0.342.
FEPDAYDDLDQ [ELP5_Y302_YF] was tested, and the phosphorylation enrichment was 0.624.
RQNQEYEILLD [KRT39_Y379] showed a phosphorylation enrichment of 1.35.
For AKYLGYPPPEI [KDR_Y357], the phosphorylation enrichment was 0.374.
Work on RLLVVYPWTQG [HBG2_Y36_R41G] yielded a phosphorylation enrichment of 0.542.
EEGRVYVFHLS [ITGAE_Y549_R552H_YF] gave a phosphorylation enrichment of 0.672.
With DKATEYIQYMR [MAX_Y70] the phosphorylation enrichment was 0.448.
RSPLRYISILT [OR51B6_Y130_T131I] gave a phosphorylation enrichment of 0.446.
With LQTFRYHGLSM [PDHA1_Y289_H292L_YF] the phosphorylation enrichment was 1.05.
Sequence QYQLKYSETPF [SIX6OS1_Y129] has a phosphorylation enrichment of 0.743.
For KNSFKYYMSDD [ATRX_Y203_C200S], the phosphorylation enrichment was 0.507.
Sequence TSQSQYFSFRE [CCDC170_Y323] has a phosphorylation enrichment of 0.315.
In the case of TEAEPYYCSLR [NPHS1_Y1138_R1140C], the phosphorylation enrichment is reported as 1.5.
Sequence EVKAQNEDIAQ [KRT1_Y358_Y358N] has a phosphorylation enrichment of 0.422.
With RHPFFFAPELL [ALB_Y174_Y174F_YF] the phosphorylation enrichment was 0.947.
